# Source: the nanobody polyreactivity screen of Harvey et al. (2022)
# Experiment: yeast display, Sf9 membrane polyspecificity reagent, FACS + sequencing; frameworks hold sequencing errors
# How it was run: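 In a synthetic yeast display library (Saccharomyces cerevisiae BJ5465), nanobody expression was induced with galactose for 36–48 hours. FACS gates were set low and high (top ~1%) using anti-HA fluorescence for expression and streptavidin fluorescence for binding of the Sf9 membrane reagent. Each polyreactivity label is drawn from the gate of origin.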
row,Sequence,polyreactivity (PSR sort gate)
1,QVQLVESWGGLVQAGGSLRLSCAASGSTFRPYAMGWYRQAPGKERELVAAFRSGRTSYADSVKGRFTISRDNAKNTVYLQMNSLKPEDTAVYYCAKASRGGYYWGQGTQVTVSS,high polyreactivity
2,QVQLVESWGGLVQAGGSLRLSCAASGSTFRSNAMGWYRQAPGKERELVAAITGSGGSTYYADSVKGRYTISRDNAKNTVYLQMNSLKPEDTAVYYCWGLGTQVTVSS,low polyreactivity
3,QVQLVESWGGLVQAGGSLRLSCAASGSTFYRYAMGWSRQAPGKERELVAAINTGGSTNYADSVKGRFTISRDNAKNTVYLQMNSLKPEDTAVYYCAARFQYYRKYDYWGQGTQVTVSS,low polyreactivity
4,QVQLVESWGGLVQAGGSLRLSCAASGSTSVYYAMGWYRQTPGKERELVDAITWDDGSTSYADSVKGRFTISRDNAKNTVYLQMNSLKPEDTEVYYCAKDYEYLGAFNYWGQGTQVTGSS,low polyreactivity
5,QVQLVESWGGLVQAGGSLRLSCADSGYIYDHYDMGWYRQAPGKDRELVAAISRSAGSTYYADSVKGRFTITRDNAKNTVYLQMNSLKPEDSAVYYCAADGKYYHRRPGWPIYDYWGQGTQVTVSS,high polyreactivity
6,QVQLVESWGGLVQAGGSLRLSCADSGYTFYTNAMGWYREAPGKERELVAAISIGGNTNYADSVKGRFTISRDNAKNTVYLQMNSLKPEDTAVYYCAKAWSGISSRDYDLDYWGQGTQVTVSS,low polyreactivity
7,QVQLVESWGGLVQAGGSLRLSCGASGYSFQPYTMGWYRQAPGKERELVAAISKSGTRTYYADSVKGRFTISRDNAKNTVYLQMNSLKPEDTAVYYCAARYTGNLFDYWGQGTQVTVSS,high polyreactivity
8,QVQLVESWGGLVQAVGSLRLTCAASGVIFAIYAIGLYRQAAGKEREMVSSIRWSSGRTYYPDSVKGRFTISRDNAKNTVYLQMNSLKPEDTAVYNCAATPSIFTIHRQDYDYWGQGTQVTVSS,high polyreactivity
9,QVQLVESWGGLVQPGGSLRLRCAASGLIFGRNAMGWYRQAPGKERELVAAISWSGGSTYYADSVKGRFTISRDNAKNTVYLQMNSLKPEDTAVYYCYRYRYYGSEDDYWGQGTQVTVSS,high polyreactivity
10,QVQLVESWVGLVQAGGSLRLSCAASGNTFKYYDMGWYRQAPGKERELVATISRTAGSTYYADSVKGRFSISRDYAKNTVYLQMNSLKPEDTAVYYCNKDRGHPFKYDYWGQGTQVTVSS,low polyreactivity
11,QVQLVETGAGLVQAGGSLRLSCAASGRTYVYNAMGWYRQAPGKERELVAAIDGGGDRTYYADSVKGRFTISRDNAKNTVYLQMNSRKPEDTAVYYCARDQGDTYYYSYPEGDYWGQGTQVTVSS,low polyreactivity
12,QVQLVETGAGLVQAGGSLRLSSAASGFIFYPYAMGWYRQAPGKERELVAVINKSSDNTYYADSVKGRFTISRDNAKNTVYLQMNSLKPEDTAVYYCAAEYVFYSRFFTEEYWGQGTQVTVSS,low polyreactivity
13,QVQLVETGGGIVQAGASLRLSCAASGRIFPPYAMGWYRQAPGKERELVAAISSSGGSTYYADSVKGRFTISRDNGKNTVYLQMNSLKPEDTAVYYCATFFARGYNSWGQGTQVTVSS,high polyreactivity
14,QVQLVETGGGIVQAVGSLRLSCAASGSTFGWNAMGWNRQAPGKERELVAVISSDGRTYYADSVKGRFTISRDNAKNTVYLQMISLKPEDTAVYYCAKRAWGFGGYDYWGQGTQVTVSS,low polyreactivity
15,QVQLVETGGGLFQAGGSLRISCAASGFIFTLYAMGWYRQAPGKERELVAAINSGGSTDYADSVKGRFTISRDNAKNTVYLQMNSLKPEDTAVYYCAAGNTYAGSDYWGQGTQVTVSS,low polyreactivity
16,QVQLVETGGGLVQAGGRLRLSCAASGRILPGNAMGWSRQAPGKERELVAAISSGGRTNYADSVKGRFTISRDNAKNTVYLQMNSLKPEESAVYYCAKRTVWWSNWHYYPPTYNYWGQGTQVTVSS,high polyreactivity
17,QVQLVETGGGLVQAGGRLRLSCAASGSIFPDYDMGWYRQAPGKQRELVAAISSSGDSTYYADSVKGRFTISRDNAKNTVYLLMNSLKPEDTAVYYCAVDGTRSTSNGSEFTGYNYWGQGTQVTVSS,low polyreactivity
18,QVQLVETGGGLVQAGGSLRISCAASGRIFGWYAMGWYRQAPGKERELVAGINYGGGRTYYADSVKGRFTISRDNAKNTVYLQMNSLKPEDTAVYYCAAGISGHYYWGQGTQVTVSS,high polyreactivity
19,QVQLVETGGGLVQAGGSLRISCAPSGRTFRNNDMAWYRQAPGTEREFVAVISNTGGSTYYADSVKGRFTNSRDNAKNTVYLQMNSLKPEDTAVYYCAVRPRYSQYYYWGQGTQVTVSS,high polyreactivity
20,QVQLVETGGGLVQAGGSLRISCAPSGSTFAGYAMGWYRQAPGKERELVAAISYSGGTTYYADSVKGRFTISRDNAKNTVYLQMNSLKPEDTAVYYCAARKKYKTPSNDMYYWGQGTQVTVSS,high polyreactivity
21,QVQLVETGGGLVQAGGSLRLICAASGRIFTWYAMGWYRQGPGKERELVATNSYNGGRTYYADSVKGRFTISRDNAKNTVYLQMNSLKPEDNAVYYCNTVPVGSVSHGLDSRFGYWGQGTQVTVSS,high polyreactivity
22,QVQLVETGGGLVQAGGSLRLICAASGSTFQNNAMGCYIQAPGKERELVAAIRFSGGSTYYADSVKGRFTISRDNAKNTVYLQMNSLKPEDTAVYYCNAVVKRWSDYSYPVRYDYWGQGTQVTVSS,high polyreactivity

row,Sequence,polyreactivity (PSR sort gate)
1,QVQLVETGGGLVQAGGSLRLRGAASGSTNYNYAMGWYRQAPGKERELVAAISISGGSPYYADSVKGRFTISRDNANNTVYLQMYSLKAEDTAVYYCAAVRLGSRGGYCGQGTQVTVSS,high polyreactivity
2,QVQLVETGGGLVQAGGSLRLSCAASGCTFKYNTMGWYRQAPGKERELVAAITSGGGSTNYADSVKGRFTISRDNAKNTVYLQMNSLKPEDTAVYYCAAYRRNTYWGQVTQVTVSS,high polyreactivity
3,QVQLVETGGGLVQAGGSLRLSCAASGFIFRKYAMGWYRQAPGKERELVAAITASGGSTYYADSVKGRFTISRDNAKNTVYLQMNSLKPEDTAVYYCATDYHGAERWLKYVYWGQGTQVTVSS,high polyreactivity
4,QVQLVETGGGLVQAGGSLRLSCAASGFIFVKYAMGWYRQAPGKERELVAAITTSGTGTFYADSVKGRFTISRDNAKNTVYLQMNSLKPVDTAVYYCNALGHPGDDWGQVTQVTVSS,low polyreactivity
5,QVQLVETGGGLVQAGGSLRLSCAASGFTFASYAMGWYRQAPGKERELVAAITWGTGTTSYADSVKGRFTISRDNAKNTVYLQMNSLKPEDTAVYYCATRYRQITYRRRYDYWGQGTQVTVSS,low polyreactivity
6,QVQLVETGGGLVQAGGSLRLSCAASGFTFGSNAMGWYRQAPGKEREFVAAITYSGGGTYADSVKGRFTISRDNAKHTVDLQMNSLKPEDTAVYYCATDAYRWHYWNFGFGYWGQGTQVTVSS,high polyreactivity
7,QVQLVETGGGLVQAGGSLRLSCAASGFTFNNYAMGWYRQAPGTERELVAAISWSGGRTYYPDSVMGRFTISSDNAKNTVYLQMNSLNTEDTAVYYCAADFSGSVDYWGQGTQVTVSS,high polyreactivity
8,QVQLVETGGGLVQAGGSLRLSCAASGFTFPYNAMGWYRQAPGKERELVAAISSTGGITYYADSVKGRFTISRDNAKNTVYLQMNSLKPEDTAVYYCGWYDYWGQGTQVTVSS,low polyreactivity
9,QVQLVETGGGLVQAGGSLRLSCAASGGSFTYNALGWDRQSPGKERALVAAITDSGGSTFADSVKGRFTISRDIAKNNVYLQMNSLKPEDTAVYYCAAGDGDTGSMYLRKLSDYWGQGTQVTVSS,low polyreactivity
10,QVQLVETGGGLVQAGGSLRLSCAASGITFAYNTMGWYIQAPGKERELVAGISFSGASTYYADSVKGRFTISRDYAKNTVYLQMNSLKPEDTAVYDCAAPRWVANQYREYDYWGQGTQVTVSS,high polyreactivity
11,QVQLVETGGGLVQAGGSLRLSCAASGITFWYYAMGWYIQAPGKERELVAAITSGGSTYYADSVKGRFTISRDNAKNTVYLQMNSLKPEDTAVYYCAKDSVWGAKNLTSYKYYYWGQGTQVTVSS,low polyreactivity
12,QVQLVETGGGLVQAGGSLRLSCAASGITITVYAMGWYRQAPGKERELVAAINSGSSTNYADSVKGRFTISRDNAKNTVYLQMNSLKTEVTAVYYCDASYRTLPDKKRYCYWGQGTQVTVSS,high polyreactivity
13,QVQLVETGGGLVQAGGSLRLSCAASGLTFIEYAMGWYRQAPGKERELVAAISSGGRTYYADSVKGRFTISRDNAKNTVYLQMNSLKPEDTAVYYCNARGYRRWYNYWGQGTQVTVSS,high polyreactivity
14,QVQLVETGGGLVQAGGSLRLSCAASGLTFRGYAKGWYIQAPGKERELVARITIGSSTNYADSVKGRFTISRDIAKNTVYLQMNSLKQEDSAVYYCAADKPGQFTPSYNKIYDYWGQGTQVTVSS,low polyreactivity
15,QVQLVETGGGLVQAGGSLRLSCAASGLTFYVYAMGWYRQAPGKERELVAAISSGGRTYYADSVKGRFTISRDNAKNTVYLQMNSLKPEDTAVYYCAAVRHRNYGYWGQGTQVTVSS,high polyreactivity
16,QVQLVETGGGLVQAGGSLRLSCAASGNTFQRYTMGWYRQAPGNERELVAAITWSGGNTYYADSVKGRFTISRDNAKNTVYLQMNSLKPVDTAVYYCNADYPTTAYDYWGQGTQVSVSS,low polyreactivity
17,QVQLVETGGGLVQAGGSLRLSCAASGRIFDIYAMGWYRQAPGKERELVAAIDESGGSTYYADSVKGRFTISRDNAKNTVYLQMNSLKPEDTAVYYCATDDTWTISYGWYWFTYEYWGQGTQVTVSS,low polyreactivity
18,QVQLVETGGGLVQAGGSLRLSCAASGRIFHRNAMGWYRQAPGKEREFVAGITTGSSTYYADSVKGRFTISRDNAKNTVYLQMNSLKPEDTAVYYCAARYFIGSYRPRFDYWGQGTQVTVSS,high polyreactivity
19,QVQLVETGGGLVQAGGSLRLSCAASGRIFKVYAMGWYRQAPGKERELDAAITSRGGSTYYADSVKGRFTISRDNAKNTVYLQMNSLKPEDTAVYYCAAARGLPSNKYYYWGQGTQVTVSS,high polyreactivity
20,QVQLVETGGGLVQAGGSLRLSCAASGRIFYYNTMGWYRQAPGKERELVAAISSTASTTYADSVKGRFTISRDNAKNTVYLQMNSLKPEDTAVYYCAADHRYHWAYPRGYYYWGQGTQVTVSS,high polyreactivity
21,QVQLVETGGGLVQAGGSLRLSCAASGRTFAYYVMGWYRQAPGKERELVAAISSDGSTYYADSVKGRFTISRDNAKNTVNLQMNSLKPEDTAVYYCKVDVLLVHDYVFYSWMDYWGQGTQVTVSS,high polyreactivity
